Blank lines part the entries; values can stand above or below the binder they belong to.
Experiments:
[1] = target: T1, Recombinant human HGF R/c-Met Fc chimera (R&D systems, cat no. 358-MT/CF) (human, UniProt P08581 25-932); experiment: phage ELISA, c-Met 100 ng coated, anti-M13-HRP detection, A450
T1 construct: Bought reagent; also called human c-Met-Fc; human-c-Met; not shown: Fc part of the purchased chimera

mouse c-Met-Fc [2] = target: T2, mouse c-Met-Fc (mouse, UniProt P16056 25-931, limits assumed); experiment: SPR (BIAcore), mouse c-Met-Fc immobilized on chip, antibody flowed; koff/kon
T2 construct: Bought reagent (R&D system); also called mouse-c-Met (R&D system); not shown: Fc part
Experimental: (§1) The binding capacity to c-Met of the antibody was measured by BIAcore (GE Healthcare). According to the manufacturer's manual, sensorgrams were secured by immobilizing mouse-c-Met and human-c-Met (R&D system) on a CMS chip (GE Healthcare, Sweden), and flowing various amounts of antibodies. Rate constants kon and koff were measured on the basis of the sensorgrams secured at each concentration, and Kd was calculated from the ratio of rate constants (koff/kon) (Table 3). As a result, 1E4-IgG had high binding capacity with mouse-c-Met as well as binding capacity with human-c-Met (FIG. 8).

mouse c-Met-Fc [3] = target: T2, mouse c-Met-Fc; experiment: SPR (BIAcore), mouse c-Met-Fc immobilized on chip, antibody flowed
Experimental: as §1

[4] = target: T1, Recombinant human HGF R/c-Met Fc …; experiment: SPR (BIAcore), human c-Met-Fc immobilized on chip, antibody flowed; koff/kon
Experimental: as §1

[5] = target: T1, Recombinant human HGF R/c-Met Fc …; experiment: SPR (BIAcore), human c-Met-Fc immobilized on chip, antibody flowed
Experimental: as §1

T1 sequence (P08581 25-932, change not shown): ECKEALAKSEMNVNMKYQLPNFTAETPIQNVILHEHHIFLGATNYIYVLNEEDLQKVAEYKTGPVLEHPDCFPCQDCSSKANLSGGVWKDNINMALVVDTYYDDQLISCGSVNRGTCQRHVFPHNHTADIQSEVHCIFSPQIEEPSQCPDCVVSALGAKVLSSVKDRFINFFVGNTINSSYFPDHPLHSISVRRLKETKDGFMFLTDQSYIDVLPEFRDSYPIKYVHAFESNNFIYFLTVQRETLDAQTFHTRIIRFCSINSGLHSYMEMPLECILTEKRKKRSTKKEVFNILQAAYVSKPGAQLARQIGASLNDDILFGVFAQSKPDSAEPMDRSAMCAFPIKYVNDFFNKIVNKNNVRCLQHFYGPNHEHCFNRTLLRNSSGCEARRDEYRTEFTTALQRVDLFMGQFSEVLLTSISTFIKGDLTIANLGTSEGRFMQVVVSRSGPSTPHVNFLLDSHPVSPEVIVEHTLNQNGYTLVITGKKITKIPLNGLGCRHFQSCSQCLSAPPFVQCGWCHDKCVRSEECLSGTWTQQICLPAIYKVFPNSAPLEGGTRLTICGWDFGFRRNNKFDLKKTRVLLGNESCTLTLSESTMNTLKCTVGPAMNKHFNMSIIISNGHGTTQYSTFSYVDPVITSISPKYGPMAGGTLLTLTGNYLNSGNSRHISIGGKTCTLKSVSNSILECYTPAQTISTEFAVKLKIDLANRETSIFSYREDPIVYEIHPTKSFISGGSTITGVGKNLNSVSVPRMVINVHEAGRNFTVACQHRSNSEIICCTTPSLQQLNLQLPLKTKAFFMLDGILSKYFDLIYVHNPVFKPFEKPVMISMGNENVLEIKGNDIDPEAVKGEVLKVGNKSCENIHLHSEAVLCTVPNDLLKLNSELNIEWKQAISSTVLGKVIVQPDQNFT
T2 sequence (P16056 25-931 limits assumed): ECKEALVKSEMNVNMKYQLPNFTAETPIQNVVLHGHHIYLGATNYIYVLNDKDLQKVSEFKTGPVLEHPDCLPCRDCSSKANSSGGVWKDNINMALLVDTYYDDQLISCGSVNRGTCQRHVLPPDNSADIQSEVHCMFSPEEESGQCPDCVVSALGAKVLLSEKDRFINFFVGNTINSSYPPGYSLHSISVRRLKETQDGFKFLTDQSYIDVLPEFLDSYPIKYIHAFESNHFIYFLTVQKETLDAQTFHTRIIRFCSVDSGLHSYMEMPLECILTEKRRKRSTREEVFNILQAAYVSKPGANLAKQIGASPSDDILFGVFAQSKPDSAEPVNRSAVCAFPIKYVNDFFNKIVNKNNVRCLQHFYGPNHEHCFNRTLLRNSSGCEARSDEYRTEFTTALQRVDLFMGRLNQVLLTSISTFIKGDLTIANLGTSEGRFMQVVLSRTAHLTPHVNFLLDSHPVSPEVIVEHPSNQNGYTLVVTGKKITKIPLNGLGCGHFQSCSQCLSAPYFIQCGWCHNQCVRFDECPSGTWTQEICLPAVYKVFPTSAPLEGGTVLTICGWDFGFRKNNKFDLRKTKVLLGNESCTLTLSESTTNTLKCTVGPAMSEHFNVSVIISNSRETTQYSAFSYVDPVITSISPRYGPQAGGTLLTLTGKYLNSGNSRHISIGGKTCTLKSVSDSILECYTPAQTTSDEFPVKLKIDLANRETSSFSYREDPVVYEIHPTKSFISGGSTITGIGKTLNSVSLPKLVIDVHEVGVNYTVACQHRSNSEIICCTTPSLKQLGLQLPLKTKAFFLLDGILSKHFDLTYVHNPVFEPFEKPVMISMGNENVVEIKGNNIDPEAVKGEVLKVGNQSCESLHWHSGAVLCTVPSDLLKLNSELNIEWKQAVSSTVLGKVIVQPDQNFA

binding result [1]: binds
B1: 1E4-ScFv (scFv)
scFv: QVQLVQSGAEVKKPGESLRISCQGSGYSFPTHWITWVRQMPGKGLEWMGTIDPTDSYNFYGPSFQGHVTISADSSSSTAYLQWSSLKASDTAMYYCARDGNYYDSRGYYYDTFDMWGQGTLVTVSSGLGGLGGGGSGGGGSGGSSGVGSDIQMTQSPSFLSASVGDRVTITCRASQGISTYLAWYQQKPGTAPKLLIYSASTLESGVPSRFSGSGSGTDFTLTISSLQPEDSATYYCQQADSFPLTFGGGTKVEIKRGGASLVE
notes: also called soluble 1E4-ScFv; not shown: tags implied by Ni-NTA purification and anti-Myc detection

Kd (mouse c-Met-Fc [2]): 0.615 nM
koff (mouse c-Met-Fc [3]): 0.00159 s⁻¹
kon (mouse c-Met-Fc [3]): 2.58e+06 M⁻¹ s⁻¹
Kd [4]: 0.298 nM
koff [5]: 0.000807 s⁻¹
kon [5]: 2.71e+06 M⁻¹ s⁻¹
B2: 1E4-IgG (antibody, V domains shown)
VH: QVQLVQSGAEVKKPGESLRISCQGSGYSFPTHWITWVRQMPGKGLEWMGTIDPTDSYNFYGPSFQGHVTISADSSSSTAYLQWSSLKASDTAMYYCARDGNYYDSRGYYYDTFDMWGQGTLVTVSS
VL: DIQMTQSPSFLSASVGDRVTITCRASQGISTYLAWYQQKPGTAPKLLIYSASTLESGVPSRFSGSGSGTDFTLTISSLQPEDSATYYCQQADSFPLTFGGGTKVEIKR
notes: also called 1E4 antibody; anti-c-Met IgG (1E4-IgG)

Reference: patent US20170233492A1 (PHARMABCINE, published 2017)
